The values that follow come from paper PMC2835468 (Matrix biology : journal of the International Society for …, 2009).

Holding throughout (assay): enzyme inhibition kinetics
The target in test [1] is T1, ADAMTS4-2 (human ADAMTS-4 deletion mutant, C-terminal FLAG-tag) (human, UniProt O75173 213-685).
T1 sequence (looked up): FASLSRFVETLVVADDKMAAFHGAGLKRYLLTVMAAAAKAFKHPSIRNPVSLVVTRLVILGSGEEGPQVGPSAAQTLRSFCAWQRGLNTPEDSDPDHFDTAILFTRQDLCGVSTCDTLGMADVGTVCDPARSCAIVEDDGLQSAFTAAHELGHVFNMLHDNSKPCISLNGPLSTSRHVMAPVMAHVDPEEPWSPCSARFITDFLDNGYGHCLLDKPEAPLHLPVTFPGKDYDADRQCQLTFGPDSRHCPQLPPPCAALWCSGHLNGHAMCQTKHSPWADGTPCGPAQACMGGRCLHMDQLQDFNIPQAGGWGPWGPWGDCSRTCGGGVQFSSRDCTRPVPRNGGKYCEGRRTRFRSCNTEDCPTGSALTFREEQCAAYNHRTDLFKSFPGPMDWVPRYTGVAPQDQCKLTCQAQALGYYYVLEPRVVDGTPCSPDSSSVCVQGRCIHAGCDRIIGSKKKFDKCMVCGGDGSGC

The target in test [2] is T2, ADAMTS4-4 (human ADAMTS-4 deletion mutant, C-terminal FLAG-tag) (human, UniProt O75173 213-519).
T2 sequence (looked up): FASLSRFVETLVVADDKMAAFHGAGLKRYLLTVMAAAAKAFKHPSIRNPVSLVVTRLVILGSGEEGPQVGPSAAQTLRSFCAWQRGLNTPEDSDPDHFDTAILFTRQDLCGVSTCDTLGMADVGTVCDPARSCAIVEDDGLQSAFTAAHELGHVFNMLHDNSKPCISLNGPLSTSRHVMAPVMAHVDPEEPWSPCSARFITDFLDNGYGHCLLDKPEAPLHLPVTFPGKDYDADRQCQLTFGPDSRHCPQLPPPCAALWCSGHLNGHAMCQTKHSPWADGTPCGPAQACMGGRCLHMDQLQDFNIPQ

The target in test [3] is T3, ADAMTS4-3 (human ADAMTS-4 deletion mutant, C-terminal FLAG-tag) (human, UniProt O75173 213-575).
T3 sequence (looked up): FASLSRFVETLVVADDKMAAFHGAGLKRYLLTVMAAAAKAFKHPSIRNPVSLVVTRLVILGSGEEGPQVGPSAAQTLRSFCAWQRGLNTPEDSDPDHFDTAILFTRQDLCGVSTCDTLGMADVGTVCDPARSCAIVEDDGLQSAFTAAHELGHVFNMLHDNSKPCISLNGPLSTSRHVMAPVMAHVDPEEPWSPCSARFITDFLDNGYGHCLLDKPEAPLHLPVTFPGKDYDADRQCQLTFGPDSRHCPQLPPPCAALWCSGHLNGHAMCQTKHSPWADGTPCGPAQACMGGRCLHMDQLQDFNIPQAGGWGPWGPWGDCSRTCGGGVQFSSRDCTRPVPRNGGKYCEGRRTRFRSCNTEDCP

In test [4] the target is T4, ADAMTS4-1 (full-length human ADAMTS-4, C-terminal FLAG-tag) (human, UniProt O75173 213-837).
T4 sequence (looked up): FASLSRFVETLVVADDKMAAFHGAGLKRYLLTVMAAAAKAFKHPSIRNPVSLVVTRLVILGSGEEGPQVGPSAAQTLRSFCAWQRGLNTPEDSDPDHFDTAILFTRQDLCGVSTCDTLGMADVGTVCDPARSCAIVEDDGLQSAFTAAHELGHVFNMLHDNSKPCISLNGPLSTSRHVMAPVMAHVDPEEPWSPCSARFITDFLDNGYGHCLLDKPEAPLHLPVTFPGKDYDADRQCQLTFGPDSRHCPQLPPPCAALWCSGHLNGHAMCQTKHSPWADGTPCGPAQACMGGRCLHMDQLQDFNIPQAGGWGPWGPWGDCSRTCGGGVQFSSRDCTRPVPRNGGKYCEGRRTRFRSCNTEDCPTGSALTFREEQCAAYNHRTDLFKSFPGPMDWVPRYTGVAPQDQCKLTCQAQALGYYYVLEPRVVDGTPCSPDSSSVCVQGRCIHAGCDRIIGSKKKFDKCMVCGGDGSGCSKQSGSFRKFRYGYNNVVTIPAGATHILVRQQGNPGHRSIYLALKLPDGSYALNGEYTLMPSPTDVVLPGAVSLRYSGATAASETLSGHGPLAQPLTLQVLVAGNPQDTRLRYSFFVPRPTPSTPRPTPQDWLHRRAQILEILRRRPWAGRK

B1: FLAG-tagged glycosylated human TIMP-3 (full-length tissue inhibitor of metalloproteinases 3), expressed in HEK293 (natural protein, UniProt P35625 24-211, looked up)
chain: CTCSPSHPQDAFCNSDIVIRAKVVGKKLVKEGPFGTLVYTIKQMKMYRGFTKMPHVQYIHTEASESLCGLKLEVNKYQYLLTGRVYDGKMYTGLCNFVERWDQLTLSQRKGLNYRYHLGCNCKIKSCYYLPCFVTSKNECLWTDMLSNFGYPGYQSKHYACIRQKGGYCSWYRGWAPPDKSIINATDP
modifications: glycosylated (only the 27 kDa glycosylated form remained after purification; single N-glycosylation site in the C-terminal domain)
Turning to B1, the Ki in test [1] is 0.22 nM; in test [2], 0.51 nM; in test [3] it was 0.4 nM; in test [4], 0.22 nM.
